Numbering of substitutions follows the chain as printed. Values belong to the binder of their own block, whether it stands above or below them.
Legend:
Assay in all cases: SEC; SufBCD complexes co-expressed in E. coli and co-purified on Phenyl FF, Q XL and Sephacryl S-200; eluted from gel filtration at about 160 kDa; subunit composition checked by SDS-PAGE of the purified sample
Conditions in all cases: both partners purified
SufB^E434A = biological target: T1, SufB^E434A (Escherichia coli, UniProt P77522 1-495, SufB^E434A)
T1 construct: SufB of the Escherichia coli sufABCDSE operon
T1 sequence: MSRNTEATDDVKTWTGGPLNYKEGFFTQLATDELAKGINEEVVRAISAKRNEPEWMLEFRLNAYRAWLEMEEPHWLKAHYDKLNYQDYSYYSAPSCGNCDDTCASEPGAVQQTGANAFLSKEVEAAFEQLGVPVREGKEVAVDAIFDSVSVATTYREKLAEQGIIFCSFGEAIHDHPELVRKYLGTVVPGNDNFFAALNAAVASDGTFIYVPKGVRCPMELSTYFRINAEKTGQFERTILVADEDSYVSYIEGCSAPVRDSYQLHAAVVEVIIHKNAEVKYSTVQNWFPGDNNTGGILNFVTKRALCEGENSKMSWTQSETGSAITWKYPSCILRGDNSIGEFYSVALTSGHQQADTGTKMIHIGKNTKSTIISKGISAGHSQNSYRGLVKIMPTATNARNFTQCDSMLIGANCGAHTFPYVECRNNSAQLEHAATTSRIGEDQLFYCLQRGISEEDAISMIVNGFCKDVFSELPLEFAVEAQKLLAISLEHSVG

SufB^W287A = biological target: T2, SufB^W287A (Escherichia coli, UniProt P77522 1-495, SufB^W287A)
T2 construct: SufB of the Escherichia coli sufABCDSE operon; source: pBBR-sufAB carrying the mutation, in bacterial extract
T2 sequence: T1 sequence with W287A, A434E

SufB^C405A = biological target: T3, SufB^C405A (Escherichia coli, UniProt P77522 1-495, SufB^C405A)
T3 construct: SufB of the Escherichia coli sufABCDSE operon
T3 sequence: T1 sequence with C405A, A434E

SufB^N228A = biological target: T4, SufB^N228A (Escherichia coli, UniProt P77522 1-495, SufB^N228A)
T4 construct: SufB of the Escherichia coli sufABCDSE operon
T4 sequence: T1 sequence with N228A, A434E

- binding result (SufB^E434A): binds
- binding result (SufB^W287A): binds
- binding result (SufB^C405A): binds
- binding result (SufB^N228A): binds
B1: SufC (natural protein, Escherichia coli)
chain: MLSIKDLHVSVEDKAILRGLSLDVHPGEVHAIMGPNGSGKSTLSATLAGREDYEVTGGTVEFKGKDLLALSPEDRAGEGIFMAFQYPVEIPGVSNQFFLQTALNAVRSYRGQETLDRFDFQDLMEEKIALLKMPEDLLTRSVNVGFSGGEKKRNDILQMAVLEPELCILDESDSGLDIDALKVVADGVNSLRDGKRSFIIVTHYQRILDYIKPDYVHVLYQGRIVKSGDFTLVKQLEEQGYGWLTEQQ
notes: SufC of the Escherichia coli sufABCDSE operon; also called SufC subunit of the SufBCD complex

- binding result (SufB^E434A): binds
- binding result (SufB^W287A): binds
- binding result (SufB^C405A): binds
- binding result (SufB^N228A): binds
B2: SufD (natural protein, Escherichia coli)
chain: MAGLPNSSNALQQWHHLFEAEGTKRSPQAQQHLQQLLRTGLPTRKHENWKYTPLEGLINSQFVSIAGEISPQQRDALALTLDSVRLVFVDGRYVPALSDATEGSGYEVSINDDRQGLPDAIQAEVFLHLTESLAQSVTHIAVKRGQRPAKPLLLMHITQGVAGEEVNTAHYRHHLDLAEGAEATVIEHFVSLNDARHFTGARFTINVAANAHLQHIKLAFENPLSHHFAHNDLLLAEDATAFSHSFLLGGAVLRHNTSTQLNGENSTLRINSLAMPVKNEVCDTRTWLEHNKGFCNSRQLHKTIVSDKGRAVFNGLINVAQHAIKTDGQMTNNNLLMGKLAEVDTKPQLEIYADDVKCSHGATVGRIDDEQIFYLRSRGINQQDAQQMIIYAFAAELTEALRDEGLKQQVLARIGQRLPGGAR
notes: SufD of the Escherichia coli sufABCDSE operon; One SufD per SufBCD complex (1:2:1); also called SufD subunit of the SufBCD complex

Source: paper PMC5571166, “Mapping the key residues of SufB and SufD essential for biosynthesis of iron-sulfur clusters” (Scientific Reports, 2017)
